T1: translation elongation factor eEF1Bβ, full-length (human), P29692
T1 chain: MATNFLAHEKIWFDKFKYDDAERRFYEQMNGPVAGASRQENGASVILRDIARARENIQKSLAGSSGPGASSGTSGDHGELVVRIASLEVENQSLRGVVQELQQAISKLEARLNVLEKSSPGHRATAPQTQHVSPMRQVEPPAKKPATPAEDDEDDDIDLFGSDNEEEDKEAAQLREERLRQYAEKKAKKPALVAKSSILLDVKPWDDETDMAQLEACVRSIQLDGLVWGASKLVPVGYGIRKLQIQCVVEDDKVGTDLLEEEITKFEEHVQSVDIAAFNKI


Key:
[1] = biological target: T1, translation elongation factor eEF1Bβ, …; assay: AUC; conditions: remark: other sources report otherwise
[2] = biological target: T1, translation elongation factor eEF1Bβ, …; assay: AUC; conditions: remark: other sources report otherwise
[3] = biological target: T1, translation elongation factor eEF1Bβ, …; assay: AUC; conditions: remark: other sources report otherwise
[4] = biological target: eEF1B(αβγ)3 complex, reconstituted from full-length eEF1Bα, eEF1Bβ and eEF1Bγ (human, UniProt P24534 1-225; P29692 1-281; P26641 1-437); assay: native gel or EMSA
eEF1B(αβγ)3 complex, reconstituted from full-length eEF1Bα, eEF1Bβ and eEF1Bγ, sequence (P24534 whole entry, chain 1 of 2): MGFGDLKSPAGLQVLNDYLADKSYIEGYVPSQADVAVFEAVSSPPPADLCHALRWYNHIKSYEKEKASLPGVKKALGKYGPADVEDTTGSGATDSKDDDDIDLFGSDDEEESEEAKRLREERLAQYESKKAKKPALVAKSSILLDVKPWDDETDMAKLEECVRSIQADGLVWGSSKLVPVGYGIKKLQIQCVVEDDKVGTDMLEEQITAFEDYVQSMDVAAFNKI
eEF1B(αβγ)3 complex, reconstituted from full-length eEF1Bα, eEF1Bβ and eEF1Bγ, sequence (P26641 whole entry, chain 3 of 2): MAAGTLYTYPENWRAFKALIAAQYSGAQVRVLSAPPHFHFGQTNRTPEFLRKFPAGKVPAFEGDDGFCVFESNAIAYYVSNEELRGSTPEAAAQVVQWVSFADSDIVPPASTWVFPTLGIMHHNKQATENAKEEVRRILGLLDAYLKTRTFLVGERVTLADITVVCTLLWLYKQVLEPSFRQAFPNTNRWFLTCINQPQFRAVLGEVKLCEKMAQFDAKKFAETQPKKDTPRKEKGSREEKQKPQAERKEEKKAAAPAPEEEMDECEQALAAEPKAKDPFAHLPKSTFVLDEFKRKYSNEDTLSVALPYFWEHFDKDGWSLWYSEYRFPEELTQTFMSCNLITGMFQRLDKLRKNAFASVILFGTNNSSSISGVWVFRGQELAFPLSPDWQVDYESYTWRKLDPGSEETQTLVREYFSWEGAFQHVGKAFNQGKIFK

| stoichiometry N [1] | stoichiometry N [2] | stoichiometry N [3] | stoichiometry N [4] | Binder |
| --- | --- | --- | --- | --- |
| 3 | 3 | 3 |  | translation elongation factor eEF1Bβ, full-length, P29692 1-281 (natural protein) MATNFLAHEKIWFDKFKYDDAERRFYEQMNGPVAGASRQENGASVILRDIARARENIQKSLAGSSGPGASSGTSGDHGELVVRIASLEVENQSLRGVVQELQQAISKLEARLNVLEKSSPGHRATAPQTQHVSPMRQVEPPAKKPATPAEDDEDDDIDLFGSDNEEEDKEAAQLREERLRQYAEKKAKKPALVAKSSILLDVKPWDDETDMAQLEACVRSIQLDGLVWGASKLVPVGYGIRKLQIQCVVEDDKVGTDLLEEEITKFEEHVQSVDIAAFNKI |
|  |  |  | 6 | translation elongation factor eEF1A2 (natural protein, UniProt Q05639 1-463, looked up) MGKEKTHINIVVIGHVDSGKSTTTGHLIYKCGGIDKRTIEKFEKEAAEMGKGSFKYAWVLDKLKAERERGITIDISLWKFETTKYYITIIDAPGHRDFIKNMITGTSQADCAVLIVAAGVGEFEAGISKNGQTREHALLAYTLGVKQLIVGVNKMDSTEPAYSEKRYDEIVKEVSAYIKKIGYNPATVPFVPISGWHGDNMLEPSPNMPWFKGWKVERKEGNASGVSLLEALDTILPPTRPTDKPLRLPLQDVYKIGGIGTVPVGRVETGILRPGMVVTFAPVNITTEVKSVEMHHEALSEALPGDNVGFNVKNVSVKDIRRGNVCGDSKSDPPQEAAQFTSQVIILNHPGQISAGYSPVIDCHTAHIACKFAELKEKIDRRSGKKLEDNPKSLKSGDAAIVEMVPGKPMCVESFSQYPPLGRFAVRDMRQTVAVGVIKNVEKKSGGAGKVTKSAQKAQKAGK |

Source: article PMC9458455 (Nucleic Acids Research, 2022)
